Results published in patent publication US20020031818A1 (published 2002).

Target: GST-Mdm2, wild type, bacterially expressed and purified (pGEX-4T-1) (human, UniProt Q00987 1-491)
Assay: cell-based or functional assay

Sequence of GST-Mdm2, wild type, bacterially expressed and purified (pGEX-4T-1) (Q00987 whole entry): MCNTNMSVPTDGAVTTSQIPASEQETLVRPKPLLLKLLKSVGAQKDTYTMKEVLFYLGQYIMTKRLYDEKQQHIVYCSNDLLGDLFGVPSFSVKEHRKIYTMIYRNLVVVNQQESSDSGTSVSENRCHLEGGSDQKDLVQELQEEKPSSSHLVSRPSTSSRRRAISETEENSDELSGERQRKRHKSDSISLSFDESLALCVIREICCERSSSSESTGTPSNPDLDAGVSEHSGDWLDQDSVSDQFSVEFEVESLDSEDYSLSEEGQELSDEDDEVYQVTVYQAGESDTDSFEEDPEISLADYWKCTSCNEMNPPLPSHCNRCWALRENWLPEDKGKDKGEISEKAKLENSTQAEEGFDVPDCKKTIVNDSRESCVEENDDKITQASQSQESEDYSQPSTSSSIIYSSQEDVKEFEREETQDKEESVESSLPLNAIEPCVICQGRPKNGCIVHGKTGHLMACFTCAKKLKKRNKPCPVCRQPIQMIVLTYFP

B1: p19^ARF, wild type (other, UniProt Q64364 1-169, looked up)
chain: MGRRFLVTVRIQRAGRPLQERVFLVKFVRSRRPRTASCALAFVNMLLRLERILRRGPHRNPGPGDDDGQRSRSSSSAQLRCRFELRGPHYLLPPGARRSAGRLPGHAGGAARVRGSAGCARCLGSPAARLGPRAGTSRHRAIFAFRWVLFVFRWVVFVYRWERRPDRRA
How did the “molar ratio required for inhibition of Mdm2 sumoylation” value turn out when B1 was run?
The value was ~1 molar ratio p19^ARF:Mdm2.
